Measurements published in US20240294637A1 (DENDROCYTE BIOTECH, published 2024).

Tests used:
[1] = molecular target: T1, CD300a on CHO transfectant cell surface (UniProt Q9UGN4 18-299, limits assumed); test: flow cytometry on CD300a CHO transfectants
T1 construct: whole, on cells; Said to be 'similarly expressed in CHO cells'; also called CD300a transfected cells
T1 sequence (looked up): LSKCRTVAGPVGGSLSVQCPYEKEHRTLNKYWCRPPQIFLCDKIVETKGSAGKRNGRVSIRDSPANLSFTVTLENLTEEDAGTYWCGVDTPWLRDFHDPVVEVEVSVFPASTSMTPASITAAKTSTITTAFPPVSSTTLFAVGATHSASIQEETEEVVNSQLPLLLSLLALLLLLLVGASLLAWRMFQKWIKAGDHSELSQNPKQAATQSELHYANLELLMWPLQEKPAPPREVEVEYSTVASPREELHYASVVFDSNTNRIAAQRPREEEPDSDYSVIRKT

[2] = molecular target: CD300f^L4 expressed in CHO cells (isoform of CD300f which includes the amino acid sequence …) (human) (UniProt Q8TDQ1); test: flow cytometry MFI ratio, CD300f^L4 against CD300f^S4 CHO transfectants
[3] = molecular target: T2, CD300f-Ig fusion protein (recombinant CD300f-Fc protein, Sino Biologicals) (human, UniProt Q8TDQ1 20-156); test: Bio-Layer Interferometry (BLItz), CD300f-Fc on AHC biosensor, DCR-2 at 8.333, 16.67, 33.33, 66.67 and 0 nM, global 1:1 fit; same value in rows Index 1 to 4
T2 construct: domain: CD300f Ig-like domain; Bought reagent; also called CD300f-Fc recombinant protein; CD300f Ig-like domain; not shown: Ig Fc part (captured by goat anti-human Ig Fc / human IgG Fc capture sensor)
T2 sequence (looked up): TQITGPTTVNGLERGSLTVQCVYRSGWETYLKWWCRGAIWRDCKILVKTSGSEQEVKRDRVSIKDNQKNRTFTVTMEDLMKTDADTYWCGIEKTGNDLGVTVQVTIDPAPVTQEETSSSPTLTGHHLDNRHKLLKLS
Experimental: (§1) DCR-2 was assessed for affinity for CD300f using a BLItz System (Fortebio, Pall Life Sciences). CD300f-Fc recombinant protein was immobilized to a human IgG Fc capture sensor. A five point dilution series of each mAb was tested for association and dissociation. Kinetic rate constants were estimated using BLItz Pro software with a global fitting 1:1 binding model.
(§2) The kinetics of binding of DCR-2 to CD300f-Fc recombinant protein was determined using Bio-Layer Interferometry analysis on a BLItz System (Fortebio, Pall Life Sciences).

[4] = molecular target: T2, CD300f-Ig fusion protein (recombinant …); test: Bio-Layer Interferometry (BLItz), CD300f-Fc on AHC biosensor, DCR-2 at 8.333, 16.67, 33.33, 66.67 and 0 nM, global 1:1 fit; same value in rows Index 1 to 4; Ka Error 7.087e3
Experimental: as §1, §2

[5] = molecular target: T2, CD300f-Ig fusion protein (recombinant …); test: Bio-Layer Interferometry (BLItz), CD300f-Fc on AHC biosensor, DCR-2 at 8.333, 16.67, 33.33, 66.67 and 0 nM, global 1:1 fit; same value in rows Index 1 to 4; Kd Error 3.58e-5
Experimental: as §1, §2

binding result [1]: no binding | fold difference in binding compared to CD300f^S4 [2]: < 2 fold | Kd [3]: 0.366 nM | kon [4]: 514000 M⁻¹ s⁻¹ | koff [5]: 0.000188 s⁻¹
B1: Monoclonal antibody DCR-2 (antibody, V domains shown)
VH: MESGGGLVQPGGPLKLSCAASGFGFSGSWMSWVRQAPGKGLEWIGQINPDSSTINYTPSLKDKFIISRDNAKNTLYLQINKVRSEDTALYYCARRGFFEGYSAWFAYWGQGTLVTV
VL: ILMTQTPKFLLVSAGDRVTITCKASQSVSNDVAWYQQKPGQSPSLLIYYASNRNTGVPDRFTGSGYETDFTFTISTVQAEDLAVYFCQQDYTSPWTFGGGTKLEIKR
notes: also called mAb DCR-2
